Measurements reported in patent US20090202506A1 (ORTHO MCNEIL PHARMACEUTICAL, published 2009).

Tests used:
L^d MHC class I molecule [1] = target: T1, L^d MHC class I molecule (;mouse, UniProt P01887 21-119; P01897 25-362, limits assumed); experiment: MHC class I stabilization assay, flow cytometry on RMAS-L^d cells
T1 construct: Empty class I molecule on the surface of RMAS-L^d cells; also called L^d class I molecules
T1 sequence (MHC heavy, looked up): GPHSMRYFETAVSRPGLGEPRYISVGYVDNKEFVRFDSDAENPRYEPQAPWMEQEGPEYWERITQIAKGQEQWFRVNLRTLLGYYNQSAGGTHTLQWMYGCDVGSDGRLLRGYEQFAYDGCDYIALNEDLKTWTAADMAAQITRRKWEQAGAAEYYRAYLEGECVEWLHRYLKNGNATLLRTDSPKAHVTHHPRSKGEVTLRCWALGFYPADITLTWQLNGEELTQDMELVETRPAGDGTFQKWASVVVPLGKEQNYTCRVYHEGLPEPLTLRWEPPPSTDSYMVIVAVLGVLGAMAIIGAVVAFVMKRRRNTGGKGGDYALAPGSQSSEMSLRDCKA
T1 sequence (b2m, looked up): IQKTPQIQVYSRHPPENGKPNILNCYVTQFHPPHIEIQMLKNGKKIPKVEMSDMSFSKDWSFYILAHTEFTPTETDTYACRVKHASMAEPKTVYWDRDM
Description: (§1) The binding capacity of these synthetic peptides to L^d and D^b class I molecules were tested in an MHC class I stabilization assay (Cai et al. (1996) supra). Antigen-transporting deficient (TAP) RMAS cells (H-2^b) or L^d transfected RMAS (RMAS-L^d) cells were cultured in the presence of a titrated concentration of peptides at 27° C. After overnight culturing at 27° C., these cells were further cultured for two hours at 37° C. and the surface expression of L^d or D^b on the cells were analyzed by flow cytometry. […] Of the five peptides predicted bind to D^b, only IgE44 binds Db strongly and two peptides, IgE16 and IgE125, bind D^b weakly. […] Thus, a total of six peptides were identified that bind to either L^d or D^b MHC class I molecules.

D^b MHC class I molecule [2] = target: T2, D^b MHC class I molecule (;mouse, UniProt P01887 21-119; P01899 25-309, limits assumed); experiment: MHC class I stabilization assay, flow cytometry on RMAS cells
T2 construct: Empty class I molecule on the surface of RMAS cells; also called D^b class I molecules
T2 sequence (MHC heavy, looked up): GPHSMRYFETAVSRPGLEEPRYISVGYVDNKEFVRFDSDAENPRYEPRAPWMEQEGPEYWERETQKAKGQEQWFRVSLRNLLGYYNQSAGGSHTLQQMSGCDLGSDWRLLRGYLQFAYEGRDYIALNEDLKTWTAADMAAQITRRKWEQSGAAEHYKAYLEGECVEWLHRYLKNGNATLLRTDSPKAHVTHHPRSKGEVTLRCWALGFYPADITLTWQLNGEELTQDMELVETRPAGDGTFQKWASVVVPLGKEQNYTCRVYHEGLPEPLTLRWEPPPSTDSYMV
T2 sequence (b2m, looked up): T1 sequence (b2m, looked up)
Description: as §1

L^d MHC class I molecule [3] = target: T1, L^d MHC class I molecule; experiment: MHC class I stabilization assay, flow cytometry of surface L^d on RMAS-L^d cells with titrated peptide
Description: as §1

D^b MHC class I molecule [4] = target: T2, D^b MHC class I molecule; experiment: MHC class I stabilization assay, flow cytometry of surface D^b on RMAS cells with titrated peptide
Description: as §1

Binder: KPCKGTASM [IgE 11]
- ratio of fluorescence intensity (with peptide - without peptide)/without peptide (L^d MHC class I molecule [1]): > 2 fold

Binder: HSTIQLYCF [IgE 114]
- binding result (L^d MHC class I molecule [1]): binds

Binder: TASMTLGCL [IgE 16]
- binding result (D^b MHC class I molecule [2]): binds

Binder: GHILNDVSV [IgE 125]
- binding result (D^b MHC class I molecule [2]): binds

Binder: GSNQGFFIF [IgE 366]
- binding result (D^b MHC class I molecule [2]): binds
- binding result (L^d MHC class I molecule [1]): binds

Binder: MSTVNFPAL (also called MSTVNFPAL) [IgE 44]
- ratio of fluorescence intensity (with peptide - without peptide)/without peptide (D^b MHC class I molecule [2]): > 2 fold

Binder: IPPSPLDLY [IgE 209]
- binding result (L^d MHC class I molecule [3]): no binding

Binder: FPNPVTVTW [IgE 29]
- binding result (L^d MHC class I molecule [3]): no binding

Binder: HSSCDPNAF [IgE 105]
- binding result (L^d MHC class I molecule [3]): no binding

Binder: KSNGSNQGF [IgE 363]
- binding result (L^d MHC class I molecule [3]): no binding

Binder: RSAPEVYVF [IgE 307]
- binding result (L^d MHC class I molecule [3]): no binding

Binder: TSLGNTSLR [IgE 411]
- binding result (D^b MHC class I molecule [4]): no binding

Binder: ASTCSKLNI [IgE 159]
- binding result (D^b MHC class I molecule [4]): no binding
